Literature values, collected in article PMC4278352.

Biological target: PikAIII docking domain (Streptomyces venezuelae) (UniProt Q9ZGI3)
Sequence of UniProt Q9ZGI3 (Q9ZGI3 1-34): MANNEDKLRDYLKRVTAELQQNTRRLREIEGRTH

## PikAII docking domain (from UniProt Q9ZGI4)
  Kd: 5 µM
